Holding throughout (test): SPR
(In general: In SPR one partner is held on a chip, and binding of the other changes the refractive index at the surface.)

The target of assay [1] is Human FcRn.
Assay [2] addresses Human FcγRIIaH131.
The target in assay [3] is NHP FcγRIIa.
Assay [4] has as its target Human FcγRIIb.
Assay [5] addresses Human FcγRIIIaV158.
Assay [6] has as its target NHP FcγRIIb.
The target in assay [7] is NHP FcγRIII.

Usually Kd stands for the constant that tells how readily two partners part at equilibrium. Lower therefore signals higher affinity. Turning to GRLR, in assay [1], the Kd came to 22.4 nM.

In the case of LS, the Kd in assay [2] was 2090 nM; in assay [3] it was 7970 nM; in assay [4] it was 6380 nM; in assay [1] it was 4.76 nM; in assay [5], 233 nM; in assay [6], 2690 nM. The substance also returned a Kd in assay [7] of 424 nM.

Source of the values: patent US20200147199A1.
